From patent US20060292074A1 (SCHERING AKTIENGESELLSCHAFT, published 2006)
Values belong to the binder of their own block, whether it stands above or below them.

Assays:
[1] = target: T1, native tomoregulin (TR) on TR-expressing cells (PC3-TR, CHO-TR) (human) (UniProt Q9UIK5); experiment: live cell ICELISA on PC3-TR cells; based on total scFv concentration
T1 sequence (looked up): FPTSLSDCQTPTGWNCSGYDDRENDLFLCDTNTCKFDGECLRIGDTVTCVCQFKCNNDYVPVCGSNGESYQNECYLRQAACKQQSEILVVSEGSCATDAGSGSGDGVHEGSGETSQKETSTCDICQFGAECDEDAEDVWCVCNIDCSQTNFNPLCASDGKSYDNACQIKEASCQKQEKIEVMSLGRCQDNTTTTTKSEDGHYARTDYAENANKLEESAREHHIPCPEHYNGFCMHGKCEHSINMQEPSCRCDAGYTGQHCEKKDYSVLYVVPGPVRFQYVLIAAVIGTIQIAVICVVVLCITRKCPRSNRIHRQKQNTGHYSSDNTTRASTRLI

[2] = target: T2, recombinant TR protein (extracellular domain of TR, amino acids 1-302, C-terminal 6xHis tag) (human) (UniProt Q9UIK5); experiment: ICELISA against direct ELISA on recombinant TR
T2 sequence (chain, glycosylated): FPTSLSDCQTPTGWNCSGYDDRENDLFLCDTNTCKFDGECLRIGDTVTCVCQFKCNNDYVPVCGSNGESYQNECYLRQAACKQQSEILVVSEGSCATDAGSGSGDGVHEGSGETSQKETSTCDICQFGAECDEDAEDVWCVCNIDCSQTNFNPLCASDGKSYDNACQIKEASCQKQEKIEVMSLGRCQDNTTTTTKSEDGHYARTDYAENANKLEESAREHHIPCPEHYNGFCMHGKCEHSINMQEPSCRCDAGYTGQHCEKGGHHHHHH

[3] = target: T2, recombinant TR protein (extracellular domain of TR, amino acids 1-302, C-terminal 6xHis tag) (human); experiment: ICELISA on recombinant TR, scFv pre-incubated with anti-E-tag antibody; based on total scFv
[4] = target: T3, recombinant TR protein (extracellular domain of TR, amino acids 1-302, C-terminal 6xHis tag) (human, UniProt Q9UIK5 41-302, glycosylated); experiment: direct ELISA on recombinant TR, monomeric scFv
T3 construct: range 41-302; Secreted from baculovirus-infected High Five cells, purified by Ni chelate and size exclusion chromatography; also called 6×his-tagged recombinant TR; recombinant protein
T3 sequence: T2 sequence (chain, glycosylated)

[5] = target: T4, native tomoregulin (TR) on TR-expressing cells (PC3-TR, CHO-TR) (human, UniProt Q9UIK5 41-374); experiment: live cell ELISA on PC3-TR cells
T4 construct: whole, on cells; also called native TR; native receptor
T4 sequence (looked up): T1 sequence (looked up)

[6] = target: T4, native tomoregulin (TR) on …; experiment: FACS on PC3-TR cells, IgG against scFv monomer; not exactly quantified
Procedure: (§1) Cells were detached with Cell Dissociation Buffer (GIBCO Invitrogen, Carlsbad, Calif.) and collected by centrifugation of 3000 rpm at 4° C. for 5 min. 2×10⁵ cells in 100 μl PBS buffer were incubated for 1 h at 4° C. with anti-TR antibodies at a range of concentrations. Excess antibody was washed away with 1 ml PBS followed by centrifugation, and cells were resuspended and incubated for 45 min at 4° C. in PBS 100 μl containing anti-mouse IgG-FITC (10 μg/mL, Vector Labs Inc.) as the second antibody. Excess antibody was washed away with 1 mL PBS and by centrifugation. Cells were resuspended in 200 μL PBS containing 5 μL propidium iodide (1 μg/ml). Fluorescence intensity was measured on a FACS Calibur (Becton Dickinson). Experiments were performed in triplicate.
(§2) Binding of AT-19 IgG to PC3 cells expressing TR was compared to mouse anti-TR IgG 2H8 by FACS. 2H8 is a murine IgG1 monoclonal antibody that reacts with the follistatin domains of the extra-cellular region of human TR protein (Afar et al., Mol. Cancer Ther., 3:921, 2004). It is used throughout as a positive control antibody.

[7] = target: T4, native tomoregulin (TR) on …; experiment: FACS on PC3-TR cells
Procedure: as §1, §2

- EC50 [1]: 8.5 nM
- fold improvement of EC50 against monomeric AT-19 scFv [2]: > 20 fold
- EC50 [3]: 1.3 nM
B1: AT-19 scFv immune complex (AT-19 scFv dimerized by pre-incubation with mouse anti-E-tag monoclonal IgG) (protein, part only; not given: E-tag and anti-E-tag IgG, not shown: small tags and cut ends)
scFv, part: QVQLVQSGGGLVQPGGSLRLSCAASGFTFSNYAMSWVRQAPGKGLEWVSAISGNGGATYYADSMKGRFTISRDNSKNTLSLQLNSLRVEDTAVYYCAKSLIWGYDRGVDYWGQGTLVTVSAGGGGSGGGGSGGGGSGAPHVILTQPPSASGTPGQRVTISCSGGASNIGTNSVNWYQQLPGTAPKLLLYTNDHRPSGVPDRFSGKSGTSASLAISGLQAEDEGDYYCAAWDDTMNGHVVFGGGTKLTVLG

- EC50 [4]: 22 nM
B2: AT-19 scFv (monomeric, monovalent single-chain anti-TR antibody) (scFv)
scFv: B1 scFv, part
notes: also called monovalent AT-19 scFv; monomeric AT-19 scFv; not shown: E-tag from the pZ603 (pCANTAB5E-based) vector

- EC50 [5]: 0.44 nM
- avidity effect (fold) against the scFv monomer [6]: > 20 fold
- EC50 [7]: 0.17 nM
B3: AT-19 IgG (fully human IgG1 format of AT-19) (antibody, V domains shown)
VH: QVQLVQSGGGLVQPGGSLRLSCAASGFTFSNYAMSWVRQAPGKGLEWVSAISGNGGATYYADSMKGRFTISRDNSKNTLSLQLNSLRVEDTAVYYCAKSLIWGYDRGVDYWGQGTLVTVSA
VL: HVILTQPPSASGTPGQRVTISCSGGASNIGTNSVNWYQQLPGTAPKLLLYTNDHRPSGVPDRFSGKSGTSASLAISGLQAEDEGDYYCAAWDDTMNGHVVFGGGTKLTVLG
notes: also called fully human AT-19 IgG
